What was measured:
[1] = molecular target: HA of A/New Caledonia/20/1999 (influenza A virus A/New Caledonia/20/1999) (UniProt Q6WG00)
[2] = molecular target: HA of A/Puerto Rico/8/1934 (influenza A virus A/Puerto Rico/8/1934) (UniProt P03452)
[3] = molecular target: C05 V110P (human); test: BLI

Row | Substance | HAI, antibody concentration at the endpoint titer; virus A/New Caledonia/20/1999 [1] [µg/mL] | HAI, antibody concentration at the endpoint titer; virus A/Puerto Rico/8/1934 [2] [µg/mL] | Kd [3] [nM]
1 | C05 V110P (antibody) | 0.2 |  | 
2 | C05 V110P-A117E (antibody) | 0.2 | > 100 | 
3 | HA of A/Puerto Rico/8/1934 (from UniProt P03452) (natural protein) |  |  | 2300

— publication PMC6358683
